In patent US20180142030A1 (Bristol-Myers Squibb, published 2018):
Residue numbers refer to the chain shown, from its start. Names and notes keep the numbering of the source. Blank lines part the entries; values can stand above or below the binder they belong to.

What was measured:
FcγRIIa-R131 = target: T1, FcγRIIa-R131 (human, UniProt P12318 34-218, limits assumed); test: BLI (ForteBio Octet), %Rmax at 10 µM FcγRIIa-R131 (CD32a-R131 on the sheet)
T1 construct: Construct not described
T1 sequence (looked up): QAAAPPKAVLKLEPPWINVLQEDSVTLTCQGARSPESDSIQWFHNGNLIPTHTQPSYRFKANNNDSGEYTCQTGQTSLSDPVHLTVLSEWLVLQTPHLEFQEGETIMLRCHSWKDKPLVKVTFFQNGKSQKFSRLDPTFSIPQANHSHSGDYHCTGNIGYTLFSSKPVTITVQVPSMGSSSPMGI
Protocol: (§1) See Example 8. Antibody names including “-sup” represent supernatants from antibody producing cells, whereas others are purified antibodies. Data are presented as percentages of a maximum receptor binding value for each combination of antibody and receptor, as measured in a ForteBio Octet system. See, e.g., Example 3. Each cluster of three bars represents, from left to right, binding to hCD32a/FcγRIIa-H131 (10 μM) (hatched bars), […] (10 μM) (black bars), and hCD32b/FcγRIIb (1 μM) (white bars).
(§2) Supernatants were obtained from cells expressing these antibodies and assayed for binding to hCD32/FcγRII. Selected purified antibodies without mutations at position 270 were used as controls.

FcγRIIa-H131 [1] = target: T2, FcγRIIa-H131 (human, UniProt P12318 34-218, limits assumed); test: BLI (ForteBio Octet), % of maximum receptor binding (%Rmax) at 10 µM hCD32a/FcγRIIa-H131
T2 construct: Construct not described; also called hCD32a/FcγRIIa-H131
T2 sequence (looked up): T1 sequence (looked up) with R134H
Protocol: as §1, §2

FcγRIIb = target: T3, FcγRIIb (human, UniProt P31994 43-217, limits assumed); test: BLI (ForteBio Octet), %Rmax at 1 µM hCD32b/FcγRIIb
T3 construct: Construct not described; also called hCD32b/FcγRIIb
T3 sequence (looked up): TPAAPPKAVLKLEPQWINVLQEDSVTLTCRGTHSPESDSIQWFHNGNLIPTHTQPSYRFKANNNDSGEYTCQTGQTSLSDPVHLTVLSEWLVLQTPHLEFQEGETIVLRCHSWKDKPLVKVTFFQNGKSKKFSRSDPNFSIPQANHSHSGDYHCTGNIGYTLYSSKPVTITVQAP
Protocol: as §1, §2

FcγRIIa-H131 [2] = target: T2, FcγRIIa-H131; test: BLI (ForteBio Octet), %Rmax at 10 µM hCD32a/FcγRIIa-H131
Protocol: as §1, §2

[3] = target: T4, recombinant human CD40 monomer (human, UniProt P25942 21-193); test: BLI (Octet RED); antibody supernatant captured on protein A sensors, huCD40-monomer in solution
T4 construct: also called huCD40-monomer; soluble human CD40
Source text: The closest matching human germline region sequence was selected for each mouse variable domain, and these human framework regions were used to replace murine frameworks in the “CDR graft” versions of the antibodies. Additional amino acid substitutions, such as framework back-mutations, were then made as necessary to restore the binding affinity of the humanized antibody. Further amino acid substitutions were made to eliminate sequence liabilities. The sequence relationships between the various forms of the antibodies of the present invention are provided at Table 6. The binding of various agonistic anti-huCD40 antibodies to soluble human CD40 was determined by Biolayer Interferometry (BLI) analysis using a Fortebio Octet RED (Rapid system—Extended Detection) label-free interaction analysis instrument. All studies were performed in 10 mM NaₓPO₄, 130 mM NaCl, 0.05% Surfactant P20 (pH 7.1) at 25° C. Briefly, anti-huCD40 antibody supernatants (diluted to 10 μg/ml or captured undiluted if supernatant concentration was less than 10 μg/ml) were captured on protein A coated biosensors (Pall Fortebio #18-5010) using a loading time of 90 s and shake speed of 1000 rpm. Supernatants were first screened for binding to 1 μM recombinant human CD40 monomer (huCD40-monomer) using 180 s association and dissociation times, at 1000 rpm, with two 15 s conditioning steps using 10 mM glycine pH 1.5 in between binding cycles.

[4] = target: T4, recombinant human CD40 monomer; test: BLI (Octet RED); run in parallel with 5F11-45

T4 sequence (P25942 21-193 limits assumed): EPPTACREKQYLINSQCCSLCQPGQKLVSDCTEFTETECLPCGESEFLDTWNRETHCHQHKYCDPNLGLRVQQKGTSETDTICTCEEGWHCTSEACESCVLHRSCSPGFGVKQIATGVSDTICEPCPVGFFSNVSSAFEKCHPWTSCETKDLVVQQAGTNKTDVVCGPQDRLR

- binding result (FcγRIIa-R131): binds
- binding result (FcγRIIa-H131 [1]): binds
- binding result (FcγRIIb): binds
B1: 12D6-24 V4 (antibody, human IgG1, kappa)
heavy: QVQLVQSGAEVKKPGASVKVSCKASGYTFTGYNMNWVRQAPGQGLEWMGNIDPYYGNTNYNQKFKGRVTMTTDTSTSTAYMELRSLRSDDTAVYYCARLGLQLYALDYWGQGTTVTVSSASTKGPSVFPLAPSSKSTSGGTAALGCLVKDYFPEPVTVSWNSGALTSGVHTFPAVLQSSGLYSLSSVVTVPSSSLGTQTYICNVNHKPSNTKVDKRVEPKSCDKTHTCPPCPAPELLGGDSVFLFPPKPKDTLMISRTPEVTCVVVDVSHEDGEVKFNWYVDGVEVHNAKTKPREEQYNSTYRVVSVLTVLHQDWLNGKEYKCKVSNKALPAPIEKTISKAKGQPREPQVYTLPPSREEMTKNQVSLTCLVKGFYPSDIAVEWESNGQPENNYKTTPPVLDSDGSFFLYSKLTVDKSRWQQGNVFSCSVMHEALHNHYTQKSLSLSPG
light: DIVMTQTPLSLPVTPGEPASISCRSSQSLVHSNANTYLHWYLQKPGQSPQLLIYKLTNRFFGVPDRFSGSGSGTDFTLKISRVEAEDVGVYYCSQSIHVPWTFGGGTKVEIKRTVAAPSVFIFPPSDEQLKSGTASVVCLLNNFYPREAKVQWKVDNALQSGNSQESVTEQDSKDSTYSLSSTLTLSKADYEKHKVYACEVTHQGLSSPVTKSFNRGEC

- binding result (FcγRIIa-H131 [2]): binds
- binding result (FcγRIIa-R131): binds
- binding result (FcγRIIb): binds
B2: 5F11-45-V9-DS-sup (antibody, human IgG1, kappa)
heavy chain: QVQLVQSGAEVKKPGSSVKVSCKASGYTFTDLSMHWVRQAPGQGLEWMGYITPSSGYTAYNQKFKGKTTLTADKSTSTAYMELSSLRSEDTAVYYCARLILQRGAYWGQGTLVTVSSASTKGPSVFPLAPSSKSTSGGTAALGCLVKDYFPEPVTVSWNSGALTSGVHTFPAVLQSSGLYSLSSVVTVPSSSLGTQTYICNVNHKPSNTKVDKRVEPKSCDKTHTCPPCPAPELLGDDSVFLFPPKPKDTLMISRTPEVTCVVVDVSHESGEVKFNWYVDGVEVHNAKTKPREEQYNSTYRVVSVLTVLHQDWLNGKEYKCKVSNKALPRPIEKTISKAKGQPREPQVYTLPPSREEMTKNQVSLTCLVKGFYPSDIAVEWESNGQPENNYKTTPPVLDSDGSFFLYSKLTVDKSRWQQGNVFSCSVMHEALHNHYTQKSLSLSPG
light chain: DIVLTQSPDSLAVSLGERATINCRASKNVDSYGNSFMHWYQQKPGQPPKLLIYRASNLESGVPDRFSGSGSGTDFTLTISSLQAEDVAVYYCQQSNEDPLTFGQGTKLEIKRTVAAPSVFIFPPSDEQLKSGTASVVCLLNNFYPREAKVQWKVDNALQSGNSQESVTEQDSKDSTYSLSSTLTLSKADYEKHKVYACEVTHQGLSSPVTKSFNRGEC
notes: Tested as supernatant of antibody-producing cells; also called 5F11-45 V9 D270S

- Kd [3]: 4.7 nM
- Kd [4]: 8.2 nM
B3: 5F11 (parental) (antibody, V domains shown)
VH: QVQLQQSAAELARPGASVKMSCKASGYTFTDLSMHWIKQRPGQGLEWIGYITPSSGYTAYNQKFKGKTTLTADKSSSTAYMQLSSLTSEDSAVYYCARLILQRGAYWGQGTLVTVSA
VL: DIVLTQSPASLAVSLGQRATISCRASKNVDSYGNSFMHWYQQKPGQPPKLLIYRASNLESGIPARFGGSGSGTDFTLTINPVEADDVATYYCQQSNEDPLTFGAGTKLELK
notes: Mouse variable domains; also called 1802.3717.5F11.A11.E7; mAb 5F11
